For one molecule, Kd results are on record in patent publication US20120301468A1, “ANTI-MN ANTIBODIES AND METHODS OF USING SAME” (BAYER HEALTHCARE LLC, priority 2005, published 2012).

For this experiment, the target named is human MN protein, entire extra-cellular domain with a C-terminal histag, expressed in HKB-11 cells (human), Q16790. Kind of experiment: SPR, BIAcore 3000, IgG captured by anti-human IgG Fc, MN as analyte, 1:1 Langmuir fit. The following applies: remark: other sources report otherwise. A general note: Surface plasmon resonance follows binding to a sensor surface in real time, without labels.

B1: 3a4 full-length human IgG1 (antibody, V domains shown)
VH: QVELVESGGGLVQPGGSLRLSCAASGFTFSDYSINWVRQAPGKGLEYVSNISYSGSSTYYADSVKGRFTISRDNSKNTLYLQMNSLRAEDTAVYYCARFKYSGGSDSWGQGTLVTVSS
VL: DIELTQPPSVSVAPGQTARISCSGDNLPDFYVHWYQQKPGQAPVLVISEDNKRPSGIPERFSGSNSGNTATLTISGTQAEDEADYYCSTYGYTYSYSVFGGGTKLTVL
By Kd is commonly meant the free concentration of one partner at which half of the binding sites on the other are occupied at equilibrium, for simple one-to-one binding. A higher Kd goes with lower affinity. As for B1, the Kd stood at 1 nM.
